# Residue numbers refer to the chain shown, from its start. Names may count otherwise.
# B1: BT61 Lot 52690 (antibody, human IgG1, kappa, V domains shown)
# VH: EEQLVESGGGLVKPGGSLRLSCAASGFSFSDCRMYWLRQAPGKGLEWIGVISVKSENYGANYAESVRGRFTISRDDSKNTVYLQMNSLKTEDTAVYYCSASYYRYDVGAWFAYWGQGTLVTVSS
# VL: DIVMTQSPDSLAVSLGERATINCRASKSVSTSGYSYIYWYQQKPGQPPKLLIYLASILESGVPDRFSGSGSGTDFTLTISSLQAEDVAVYYCQHSRELPWTFGQGTKVEIKR
# B2: LC master HC S101T (antibody, V domains shown)
# VH: B1 VH with S101T
# VL: B1 VL
# B3: LC master HC A63G (antibody, V domains shown)
# VH: B1 VH with A63G
# VL: B1 VL
# B4: LC master HC R33K (antibody, V domains shown)
# VH: B1 VH with R33K
# VL: B1 VL
# B5: LC master HC R33K-A63G (antibody, V domains shown)
# VH: B1 VH with R33K, A63G
# VL: B1 VL
# B6: HC master LC L98I (antibody, V domains shown)
# VH: B1 VH
# VL: B1 VL with L98I
# B7: LC L98I HC R33K (antibody, V domains shown)
# VH: B1 VH with R33K
# VL: B1 VL with L98I
# B8: LC master HC master (antibody, human IgG1, kappa, V domains shown)
# VH: B1 VH
# VL: B1 VL
# B9: LC master HC Y105W (antibody, V domains shown)
# VH: B1 VH with Y105W
# VL: B1 VL
# B10: LC A55G HC R33K (antibody, V domains shown)
# VH: B1 VH with R33K
# VL: B1 VL with A55G
# B11: LC G33A HC R33K (antibody, V domains shown)
# VH: B1 VH with R33K
# VL: B1 VL with G33A
# B12: BT061 variant LC master HC Y105W (antibody, V domains shown)
# VH: B1 VH with Y105W
# VL: B1 VL
# notes: also called knockout mutant
# Target: Human CD4 on CD4+CD25+ regulatory T cells of healthy donors (human, UniProt P01730 26-458)
# Assay: cell-based or functional assay
% Inh1 [%],% Inh2 [%],% Inh3 [%],Avg. % inhibition [%],Binder
26.7,24.1,27.8,26.2,B1
3.1,-3.6,0,-0.2,B2
33.1,25.5,19.5,26,B3
19.8,18.8,15,17.9,B4
15.7,21.5,21.9,19.7,B5
12.2,8.4,18.2,12.9,B6
9.2,24.3,24.6,19.4,B7
,25.4,25.9,26.3,B8
5.3,2,7,4.8,B9
12.1,6.4,19.3,12.6,B10
6.5,7.9,9,7.8,B11

# Target: T1, Human CD4 on CD4+CD25+ regulatory T cells (human, UniProt P01730 26-458)
# T1 construct: CD4 on Tregs or T cells of healthy human donors
# Assay: in vitro assay with CD4+CD25+ regulatory T cells (allogeneic mixed lymphocyte reaction); no separate binding assay described
# Protocol: CD4+ CD25+ regulatory T cells were freshly isolated from a first donor (donor A). PBMCs were obtained from EDTA-blood by density gradient centrifugation. […] Tregs were pre-incubated with or without plate-bound antibody for 2 days. The number and phenotype of Tregs was determined by six colour flow cytometry as previously described (Haas et al., 2007). Pre-incubated Tregs were transferred to responder T cells (second donor B) in the presence of T-cell depleted and irradiated PBMCs (first donor A). After stimulation, [³H] thymidine was added and proliferation of responder T cells was measured after five days.
row,binding result,Binder
1,no binding,B12

# Reference: patent publication US20130004513A1 (published 2013)
